Among the data in paper PMC6794829 are binding values, retold here.

In data set [1] the test system is T1, HcdR2 (LuxR family regulator) (Streptomyces mobaraensis US-43), ORF:dfa86b54.
T1 sequence: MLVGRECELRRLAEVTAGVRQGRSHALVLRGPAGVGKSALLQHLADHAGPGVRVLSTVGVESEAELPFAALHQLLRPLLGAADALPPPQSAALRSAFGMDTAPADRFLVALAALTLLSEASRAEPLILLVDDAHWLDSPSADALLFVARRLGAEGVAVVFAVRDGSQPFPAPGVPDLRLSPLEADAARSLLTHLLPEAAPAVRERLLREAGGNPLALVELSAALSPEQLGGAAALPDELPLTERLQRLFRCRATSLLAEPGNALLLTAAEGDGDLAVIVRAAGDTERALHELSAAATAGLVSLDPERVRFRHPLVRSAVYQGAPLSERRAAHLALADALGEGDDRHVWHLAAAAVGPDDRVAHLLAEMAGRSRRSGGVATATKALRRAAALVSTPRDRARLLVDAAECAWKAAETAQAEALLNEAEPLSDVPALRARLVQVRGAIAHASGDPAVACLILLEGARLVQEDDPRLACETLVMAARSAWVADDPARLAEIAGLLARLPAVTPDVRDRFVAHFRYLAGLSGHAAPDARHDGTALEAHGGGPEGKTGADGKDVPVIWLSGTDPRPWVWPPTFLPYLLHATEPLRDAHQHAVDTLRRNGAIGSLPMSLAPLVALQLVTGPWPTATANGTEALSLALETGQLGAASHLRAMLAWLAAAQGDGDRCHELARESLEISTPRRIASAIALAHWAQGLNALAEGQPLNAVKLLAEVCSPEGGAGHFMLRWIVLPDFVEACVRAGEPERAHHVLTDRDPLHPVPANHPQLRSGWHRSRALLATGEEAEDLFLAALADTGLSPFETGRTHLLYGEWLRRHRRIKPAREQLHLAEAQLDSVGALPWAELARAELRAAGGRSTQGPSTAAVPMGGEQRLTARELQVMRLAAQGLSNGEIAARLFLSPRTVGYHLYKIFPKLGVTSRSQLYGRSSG
As to the kind of experiment: competition. As to conditions: EMSA: 10 mM Tris-HCl, 50 mM KCl, 1 mM DTT, pH 7.5 (1x of 10x buffer), 20 fmol probe in 20 uL, 25-2000 nM protein, room temperature 20 min; native 5% gel, 0.5x …. On the technique in general: In EMSA bound probe runs differently from free probe, usually more slowly.

Data set [2] has the same test system. The data set can be described thus: EMSA. As to conditions: EMSA: 10 mM Tris-HCl, 50 mM KCl, 1 mM DTT, pH 7.5 (1x of 10x buffer), 20 fmol probe in 20 uL, 25-2000 nM protein, room temperature 20 min; native 5% gel, 0.5x ….

For “CGCGCCCAGCGGCCAGGTGGGCCGTTGCGCCAGGCGGGCGGCCGCCACCCCCGCAGTGCCAGGGGCAGTCCGCCGCACAGCTCGGCCAGCCGTCGCGCAGC (double strand) [hcdR1p]”, the binding result in data set [1] is given as “no binding”.

Regarding “CTCTTCGCGGGGAGAGAGCGGCCGGTCGCGGCACGGCGAGCCTATGAAGATCGACACGGCCGCCCCACCCCCTACGACCCCTACGAACCCCTGTCCCCTACCGGCGCGGCAGGGGACAGGGGTTCGTAGGGGTCGTAGGGGGTGGGGGGCCGCCGGACGATCTTCATAGGCTCGCTCTCGATCGGAGACGGCCCTCGCAGCCGTGTCCCCGGCAACCCGGACTTCTCGCGGACCGGCCGCCCCCAGGCCGACCCCCCTACTCGATCCACGACGAGAAAGAGGTT (double strand) [V2 Bp]”, in data set [1], the binding result is “binds”.

As to “GATTCAGCCAAGTGACCCCGCAAGAAGCCTCGTTCGCGAACGGTCCCTGAGCCCGCGCCCGCGCCGCACCCGCGGACCATCCGCCGAACGGCCGGGCCGCCCGTACGGTCTGGAGAGCGCCACGGCGTGCGGGTCCCGGTGGTGGGCCACGGCGCGGCCGACCCGTCAGGTGTTTCCGGGAGGCCGCGCCGCGGAGGGCACGCACGTCCGTGGCGGGACCGGGGGACGGGAGACGGCGTGGCGCCGCGTCATGGTCGTCCGGCGCCTCGATGCCGTCACGGCGCAGGGCGGGCCCGCCGG (double strand) [hcdT-1p]”, the binding result in data set [2] was “no binding”.
